Experimental findings from patent publication US6861578B1, “Method for plant protection against insects or nematodes by transformation with a nucleic acid encoding equistatin” (Plant Research International B.V., priority 1997, dated 2005) are described below.

The test system of data set [1] is western corn rootworm cysteine and aspartic protease activity. In words: Protease activity of western corn rootworm larval gut extract, FITC-hemoglobin. Type of data set: biochemical, Diabrotica virgifera. As to conditions: for residual protease activity: recombinant equistatin; for inhibition of protease activity: western corn rootworm. Further details: inhibition of protease activity: concentration or dose not given beside the values. Here is the method:
(§1) Adult western flower thrips (Frankliniella occidentalis) and leafmirer flies (Liriomyza trifolii) adult were harvested from a culture maintained on chrysanthemum plants and complete thrips and flies were homogenized in extraction on buffer (200 mM β-alanine-HCl, pH 3.5) in a volume of 5 times the weight of the insects. The buffer pH was at the previously determined pH optimum of protease activity towards hemoglobin. Final instar Colorado potato beetle larvae maintained on potato plants as described in example 5 were checked for gut aspartic protease activity by preparing a total gut extract in pH 3 buffer which is optimal for Colorado potato beetle aspartic proteases (200 mM glycine, pH 3). Guts were homogenized in 100 μl buffer per gut. Third instar western corn rootworm larvae maintained on corn roots were used to remove the guts. Ten guts were homogenized in 100 μl water and spinned twice to remove insoluble material. Two types of buffers were used in the enzymatic assay. One with a pH presumably favoring cysteine proteases (50 mM MES, pH 6.5; 0.6 mg/ml L-cysteine) and one for detecting aspartic proteases (200 mM glycine, pH 3). Supernatants were stored at −20° C.
(§2) 2 μl gut extract was combined with 2 μl inhibitor (2 mM pepstatin in methanol, 4 mM E64 in water, 2 mg/ml recombinant equistatin in water. The concentration of the other proteinaceous inhibitors was not known exactly). Appropriate buffers were added to a final volume of 100 μl. After 15′ preincubation 20 μl substrate (5 mg/ml FITC-hemoglobin) was added and incubated for 30-45 min at 37 C.
(§3) Reaction was stopped by the addition of 100 μl 10% TCA. Tubes were centrifuged and 100 μl supernatant mixed with 100 μl 10 N NaOH was measured on a fluorimeter for the extent of hemoglobin hydrolysis. Measurements were done in duplicate on one (thrips, leafminer and western corn rootworm), or three (Colorado potato beetle) different gut extracts and varied by a maximum of +/−5%.

In data set [2] the test system is amino-peptidase activity of Colorado potato beetle larval gut extracts. As to the kind of experiment: Amino-peptidase activity of Colorado potato beetle gut extract, L-Arg-pNA. Type of data set: biochemical, Leptinotarsa decemlineata. The source says: (§4) Guts of final instar Colorado potato beetle larvae reared on methyl jasmonate induced plants were isolated and extracted essentially as described (Bolter and Jongsma, J. Insect Physiol. 41: 1071-1078). In these gut extracts the proteases that are sensitive to the protease inhibitors of potato are already complexed. The residual protease activity is composed of potato protease-inhibitor-insensitive proteases which were induced in response to the methyl jasmonate induced potato inhibitors. These proteases are the proteases that render the beetle larvae insensitive to protease inhibitor defense of the potato plant. Wle tested a broad range of different cysteisie protease inhibitors for activity specifically against these induced potato protease inhibitor-insensitive cysteine protesses. Nearly all of these inhibitors were purified at the Jozef Stefan Institute in Slovenia. Testing their potential against Colorado potato beetle was done using both general protein substrates (azocasein, table 2) as well as specific synthetic substrates (L-Arg-pNA, table 3; pGlu-Phe-Leu-pNA, table 4; Z-Phe-Arg-pNA, table 5; Z-Arg-Arg-pNA, table 6). In specific cases inhibitors were tested at two concentrations, eauimolar and in excess to the protease, in order to obtain an indication of the tightness of the complex. […] Importantly, this class of inhibitors was capable of inhibiting nearly all general cysteine protease activity. The equistatin peptide molecule and a functional derivative thereof were not very active against the aminopeptidase-like cysteine protease activity. […] The best combination of inhibitors for full toxicity against the Colorado potato beetle would therefore be a combination of equistatin or p41 invariant chain fragment and stefin-like inhibitors.

For another data set, the target named is T1, papain (Carica papaya, UniProt P00784).
T1 sequence (P00784 134-345): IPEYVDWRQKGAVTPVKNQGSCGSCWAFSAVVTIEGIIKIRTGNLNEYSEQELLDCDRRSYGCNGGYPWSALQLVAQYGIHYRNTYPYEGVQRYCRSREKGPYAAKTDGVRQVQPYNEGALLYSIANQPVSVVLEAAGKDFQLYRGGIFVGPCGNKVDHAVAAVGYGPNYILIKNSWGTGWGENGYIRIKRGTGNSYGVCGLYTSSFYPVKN
In words: Stoichiometry and inhibition constant of recombinant equistatin with papain (Z-Phe-Arg-pNA, microtiterplate). The data set is classed as biochemical. How it is done: In a microtiterplate 20 μl papain solution (a fresh solution of 1 mg/ml (Sigma) in MES buffer titrated with E-64 to determine the active fraction, usually 17%) is combined with 0-80 μl of known protein concentration. MES buffer (50 mM MES, pH 6.5; 0.6 mg/ml L-cysteine; 1 mg/ml BSA fraction V) is added to a final volume of 150 μl. The mixture is incubated for 30 min at room temperature and subsequently 50 μl of substrate solution (60 μl of 15 mg/ml Z-Phe-Arg-pNA dissolved in methanol is diluted in 940 μl MES buffer before use). The plate is immediately placed in the nicrotiterplate reader and measured at 405 nm. Readings up to an OD600 of 0.3 are linear. Rates of change are used to determine the activity with increasing amounts of inhibitor. Results are graphically represented and at stoichiometric concentrations the amount of dissociated complex is determined to determine the apparent equilibrium dissociation constant (Ki). […] The apparent equilibrium dissociation constant for papain was estimated to be 0.6 nM in agreement with the data published for the purified protein (Lenarcic et al. (1997) J. Biol. Chem. 272: 13899-13903.

Another data set relates to thrips protease activity. As to the kind of experiment: Protease activity of adult western flower thrips extract, FITC-hemoglobin. Type of data set: biochemical, Frankliniella occidentalis. Also noted: inhibition of protease activity: concentration or dose not given beside the values. How it is done: as §1, §2, §3
Another data set concerns leafminer proteases. In words: Protease activity of adult leafminer fly extract, FITC-hemoglobin. The data set is classed as biochemical, Liriomyza trifolii. The note with it: leafminer pH 3.5; equistatin purified from sea anemone. Here is the method: as §1, §2, §3
Data set [3] deals with tri-peptidil-peptidase and endoprotease activity of Colorado potato beetle larval gut extracts. As to the kind of experiment: Tri-peptidil-peptidase and endoprotease activity of Colorado potato beetle gut extract, pGlu-Phe-Leu-pNA. Type of data set: biochemical, Leptinotarsa decemlineata.
From the text: as §4

The target of another data set is cathepsin D (Homo sapiens, UniProt P07339). In words: Cathepsin D inhibition, steady-state hydrolysis of chromophoric substrate; active site titration. The data set is classed as biochemical. Here is the method:
Residual activity is expressed as percent of control activity in samples containing no inhibitor.
The kinetics of binding of equistatin to cathepsin D was performing using a synthetic substrate which contains a chromophore, such as a nitrophenylalanine residue, in the P1′ position. The assay sensitivity, afforded by H-Pro-Thr-Glu-Phe*Nph-Arg-Leu-OH (SEQ ID NO:8) as substrate, alowed us to use 6.4 nM concentration of the enzyme as a minimal concentration in the test.

Chain of cathepsin D (P07339 65-412, species assumed): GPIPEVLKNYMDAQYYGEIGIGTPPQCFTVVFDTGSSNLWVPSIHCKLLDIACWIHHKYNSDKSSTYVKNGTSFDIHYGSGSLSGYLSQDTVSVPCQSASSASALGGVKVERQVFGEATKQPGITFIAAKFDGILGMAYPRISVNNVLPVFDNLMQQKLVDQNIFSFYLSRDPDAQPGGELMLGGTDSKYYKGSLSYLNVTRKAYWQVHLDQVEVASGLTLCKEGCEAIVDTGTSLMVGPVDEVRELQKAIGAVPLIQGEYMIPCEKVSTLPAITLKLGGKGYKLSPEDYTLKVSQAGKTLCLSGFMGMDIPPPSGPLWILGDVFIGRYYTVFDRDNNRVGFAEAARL

B1: equistatin: cysteine/aspartic protease inhibitor from sea anemone Actinia equina with three type I repeated thyroglobulin domains; purified or recombinant from E. coli (protein)
chain: SLTKCQQLQASANSGLIGTYVPQCKETGEFEEKQCWGSTGYCWCVDEDGKEILGTKIRGSPDCSRRKAALTLCQMMQAIIVNVPGWCGPPSCKADGSFDEVQCCASNGECYCVDKKGKELEGTRQQGRPTCERHLSECEEARIKAHSNSLRVEMFVPECLEDGSYNPVQCWPSTGYCWCVDEGGVKVPGSDVRFKRPTC
modifications: left off: large carriers; small tags and cut ends
notes: purified or recombinant from E. coli
In the case of B1, the residual protease activity came out at 2% in data set [1] (western corn rootworm pH 3); 7% in data set [1] (western corn rootworm pH 6.5); 5% with thrips protease activity (thrips pH 3.5, equistatin purified from sea anemone); 24% in the data set with leafminer proteases. The “inhibition of protease activity” value stood at 98% in data set [1] (pH 3); 93% in data set [1] (pH 6.5); 95% with thrips protease activity (thrips, pH 3.5). For the same molecule, the results for the “% of residual activity, equimolar” value in data set [2] (equimolar) and in data set [3] (equimolar) were 85% and 10%, respectively. The “% of residual activity, excess inhibitor” value in data set [2] (excess inhibitor) is 75%; in data set [3] (excess inhibitor), −5%. Moreover, in the data set with papain, the “molecules of papain inhibited by one molecule of equistatin” value is recorded as “approximately 1 molecule”. This molecule also gave a Ki with cathepsin D (cathepsin D, steady state velocity, chromophoric substrate) of 0.3 nM. Further, the “equistatin needed for the saturation of 1 mol of cathepsin D” value in the data set with cathepsin D (titration of cathepsin D with equistatin (FIG. 12)) was 1 mol.

One may read the Ki as the equilibrium dissociation constant of an inhibitor or competing ligand from its target.
